Here are results for 28 molecules from US20090280138A1 (OXFORD BIOMEDICA UK, published 2009).

Test in all cases: iTopia iScore
Experiment [1] has as its target T1, MHC class I molecule A*0101 (biotin (bound to streptavidin-coated plate)).
T1 construct: also called A1; HLA-A1
How it is done: (§1) The 9 mers were tested for Peptide Binding, Off Rate and Affinity using iTopia Epitope Discovery System in accordance with the manufacturer's instructions. Briefly, 96 well microtitre plates coated with MHC molecules representing different MHC alleles are used to identify candidate peptides. […] Determinations are performed in duplicate using an ELISA plate reader and included allele specific positive controls.
(§2) Finally, multiparametric analysis is performed on the results from these assays and an iScore is generated. The iScore represents a measure of the overall quality of peptide-MHC binding, enabling candidate peptides to be ranked in order of binding quality and allowing rational prioritisation of peptides for functional cellular follow-up studies.

Experiment [2] has as its target T2, MHC class I molecule A*0201 (biotin (bound to streptavidin-coated plate)).
T2 construct: also called A2; HLA-A2
How it is done:
as §1, §2

Experiment [3] concerns the target T3, MHC class I molecule A*0301 (biotin (bound to streptavidin-coated plate)).
T3 construct: also called A3; HLA-A3
How it is done:
as §1, §2

For experiment [4], the target named is T4, MHC class I molecule B*0702 (biotin (bound to streptavidin-coated plate)).
T4 construct: also called B7; HLA-B7
How it is done: as §1, §2

In the case of PPLAELAAL [5T4 9-mer peptide 58 PPLAELAAL], the iScore amounted to 0 in experiment [1], 0.075 in experiment [2], 0 in experiment [3] and 0.145 in experiment [4].
For the molecule LSGSRLDEV [5T4 9-mer peptide 63 LSGSRLDEV], the iScore amounted to 0 in experiment [1], 0.075 in experiment [2], 0 in experiment [3] and 0.107 in experiment [4].
On to LAELAALNL [5T4 9-mer peptide 59 LAELAALNL], for which the iScore in experiment [1] turned out to be 0; in experiment [2], 0.72; in experiment [3], 0; in experiment [4], 0.074.
As to AALNLSGSR [5T4 9-mer peptide 61 AALNLSGSR], the iScore in experiment [1], in experiment [2], in experiment [3] and in experiment [4] was 0 each time.
Take VLPAGAFAR [5T4 9-mer peptide 53 VLPAGAFAR]: the iScore in experiment [1] was 0; in experiment [2], 0.081; in experiment [3], 0.027; in experiment [4], 0.
FLTGNQLAV [5T4 9-mer peptide 49 FLTGNQLAV]: the iScore in experiment [1] amounted to 0; in experiment [2] it was 0.791; in experiment [3] it was 0; in experiment [4] it was 0.
Take GSRLDEVRA [5T4 9-mer peptide 64 GSRLDEVRA]: the iScore in experiment [1] turned out to be 0; in experiment [2], 0.13; in experiment [3] it was 0; in experiment [4], 0.
As for CVNRNLTEV [5T4 9-mer peptide 39 CVNRNLTEV], the iScore in experiment [1] worked out at 0; in experiment [2] it was 0.05; in experiment [3], 0; in experiment [4], 0.093.
Consider LPAYVRNLF [5T4 9-mer peptide 45 LPAYVRNLF], for which the iScore in experiment [1] is 0; in experiment [2], 0; in experiment [3], 0; in experiment [4] it was 0.389.
Consider GAFARRPPL [5T4 9-mer peptide 55 GAFARRPPL], for which the iScore in experiment [1] is 0; in experiment [2], 0.222; in experiment [3] it was 0; in experiment [4] it was 0.359.
Consider NLFLTGNQL [5T4 9-mer peptide 48 NLFLTGNQL], for which the iScore came out at 0 in experiment [1], 0.107 in experiment [2], 0 in experiment [3] and 0 in experiment [4].
PAGAFARRP [5T4 9-mer peptide 54 PAGAFARRP]: the iScore in experiment [1], in experiment [2], in experiment [3] and in experiment [4] was 0 in each case.
For the molecule TEVPTDLPA [5T4 9-mer peptide 42 TEVPTDLPA], the iScore in experiment [1], in experiment [2], in experiment [3] and in experiment [4] was 0 throughout.
On to LNLSGSRLD [5T4 9-mer peptide 62 LNLSGSRLD], for which the iScore in experiment [1], in experiment [2], in experiment [3] and in experiment [4] was 0 in each case.
Consider VKCVNRNLT [5T4 9-mer peptide 38 VKCVNRNLT], for which the iScore in experiment [1], in experiment [2], in experiment [3] and in experiment [4] was 0 throughout.
For RLDEVRAGA [5T4 9-mer peptide 65 RLDEVRAGA], the iScore in experiment [1] worked out at 0; in experiment [2], 0.422; in experiment [3], 0.057; in experiment [4], 0.032.
For RRPPLAELA [5T4 9-mer peptide 57 RRPPLAELA], the iScore in experiment [1], in experiment [2], in experiment [3] and in experiment [4] was 0 throughout.
In the case of FARRPPLAE [5T4 9-mer peptide 56 FARRPPLAE], the iScore in experiment [1] was 0; in experiment [2], 0.042; in experiment [3], 0; in experiment [4], 0.
In the case of TGNQLAVLP [5T4 9-mer peptide 50 TGNQLAVLP], the iScore turned out to be 0 in experiment [1], 0.044 in experiment [2], 0 in experiment [3] and 0 in experiment [4].
As to LAVLPAGAF [5T4 9-mer peptide 52 LAVLPAGAF], the iScore worked out at 0 in experiment [1], 0.074 in experiment [2], 0 in experiment [3] and 0.049 in experiment [4].
On to VPTDLPAYV [5T4 9-mer peptide 43 VPTDLPAYV], for which the iScore amounted to 0.098 in experiment [1], 0.059 in experiment [2], 0 in experiment [3] and 0 in experiment [4].
Turning to VRNLFLTGN [5T4 9-mer peptide 47 VRNLFLTGN], the iScore in experiment [1], in experiment [2], in experiment [3] and in experiment [4] was 0 in each case.
For NRNLTEVPT [5T4 9-mer peptide 40 NRNLTEVPT], the iScore in experiment [1], in experiment [2], in experiment [3] and in experiment [4] was 0 throughout.
For the molecule AYVRNLFLT [5T4 9-mer peptide 46 AYVRNLFLT], the iScore in experiment [1] amounted to 0; in experiment [2], 0.18; in experiment [3] it was 0; in experiment [4] it was 0.
Turning to ELAALNLSG [5T4 9-mer peptide 60 ELAALNLSG], the iScore was 0 in experiment [1], 0.075 in experiment [2], 0 in experiment [3] and 0 in experiment [4].
Take TDLPAYVRN [5T4 9-mer peptide 44 TDLPAYVRN]: the iScore in experiment [1], in experiment [2], in experiment [3] and in experiment [4] was 0 throughout.
NQLAVLPAG [5T4 9-mer peptide 51 NQLAVLPAG]: the iScore in experiment [1] was 0; in experiment [2], 0.22; in experiment [3], 0; in experiment [4], 0.
On to NLTEVPTDL [5T4 9-mer peptide 41 NLTEVPTDL], for which the iScore in experiment [1] worked out at 0; in experiment [2] it was 0.253; in experiment [3], 0; in experiment [4] it was 0.
